T1: MMP-2 (Homo sapiens, UniProt P08253)
T1 construct: purchased Sigma-Aldrich, USA
T1 sequence (P08253 110-660): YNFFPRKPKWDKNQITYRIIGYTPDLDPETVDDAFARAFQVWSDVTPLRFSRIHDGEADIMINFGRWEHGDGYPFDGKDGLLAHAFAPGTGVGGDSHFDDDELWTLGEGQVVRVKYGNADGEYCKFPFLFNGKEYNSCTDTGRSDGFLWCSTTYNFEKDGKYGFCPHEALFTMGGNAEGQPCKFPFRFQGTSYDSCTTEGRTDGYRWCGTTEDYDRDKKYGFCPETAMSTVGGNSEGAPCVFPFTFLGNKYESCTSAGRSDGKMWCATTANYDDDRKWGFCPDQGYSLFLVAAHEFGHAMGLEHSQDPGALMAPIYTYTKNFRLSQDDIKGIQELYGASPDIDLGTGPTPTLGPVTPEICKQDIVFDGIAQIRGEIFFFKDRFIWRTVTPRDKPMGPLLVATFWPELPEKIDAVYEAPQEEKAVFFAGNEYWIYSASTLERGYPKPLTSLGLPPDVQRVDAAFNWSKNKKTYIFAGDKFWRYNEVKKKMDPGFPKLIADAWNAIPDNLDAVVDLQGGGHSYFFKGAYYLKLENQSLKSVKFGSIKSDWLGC

B1: trypsin: proteinase detected by the sensing platform (protein, UniProt P00760 24-246, looked up)
Serine protease 1: IVGGYTCGANTVPYQVSLNSGYHFCGGSLINSQWVVSAAHCYKSGIQVRLGEDNINVVEGNEQFISASKSIVHPSYNSNTLNNDIMLIKLKSAASLNSRVASISLPTSCASAGTQCLISGWGNTKSSGTSYPDVLKCLKAPILSDSSCKSAYPGQITSNMFCAGYLEGGKDSCQGDSGGPVVCSGKLQGIVSWGSGCAQKNKPGVYTKVCNYVSWIKQTIASN

Key:
MMP-2 [1] = molecular target: T1, MMP-2; assay: Test of MMP-2 suppressor activity and specificity with AuNPs/MCH-gelatin sensing platform; type: biochemical; conditions: 37° C., 30 minutes; for suppression of MMP-2 activity (ratios A625/A525 versus control group): suppressor solution 10 mM, 0.5 μL MMP-2 (100 ng/μL), FIG. 6
Description: Buffer solutions containing different concentrations of ONO-4817 were added respectively into the solution of AuNPs/MCH-gelatin in a cuvette, and the concentrations of the solutions of AuNPs/MCH-gelatin were adjusted to give an OD525=1.
(§1) Then, a solution of a highly concentrated proteinase suppressor ONO-4817 or A1AT (10 mM) was added to give a mixture. The mixture was placed in a water bath at 37° C. for 30 minutes to allow the reaction. A change in wavelength was measured by a spectrophotometer, and the ratios (A625/A525) of the values measured at wavelengths of 625 nm and 525 nm were calculated.

trypsin = assay: Specificity test of proteinase suppressors with AuNPs/MCH-gelatin sensing platform, trypsin; type: biochemical; conditions: suppressor solution 10 mM; 0.5 μL trypsin (100 ng/μL); 37° C., 30 minutes; FIG. 6
Description: as §1

MMP-2 [2] = molecular target: T1, MMP-2; conditions: read-out: enzyme inhibition constant (Ki); cited from earlier work
AuNPs/MCH-gelatin = assay: Activity test of proteinase (trypsin) on AuNPs/MCH-gelatin; type: biochemical; conditions: 37° C., 10 minutes
Excerpt: Different concentrations of trypsin were used for detection.
Ratios (A625/A525) of the measured values at wavelengths of 625 nm and 525 nm are used as a basis for detection, so as to correct the error of waveform overlapping caused by changes to the sizes of the AuNPs. The ratios (A625/A525) of the groups are in the following: 0.2127 for A, 0.2131 for B, 0.2134 for C, 0.2554 for D, 0.4236 for E, 0.5674 for F, 0.6114 for G and 0.6484 for H. The ratios and the trypsin concentrations are shown in FIG. 3I, wherein when the trypsin concentrations are from 1.25×10^−1 U to 1.25×10^2 U, the wavelength changes and the trypsin concentrations are positively associated.

| Molecule | suppression of MMP-2 activity (waveform change, A625/A525) (MMP-2 [1]; different concentrations of ONO-4817 (0.0125 to 512 nM), 0.5 μL MMP-2 (100 ng/μL) in 200 μL AuNPs/MCH-gelatin, FIG. 5) | suppression of MMP-2 activity (ratios A625/A525 versus control group) (MMP-2 [1]) | suppression of trypsin activity (ratios A625/A525 versus control group) (trypsin) | Ki (MMP-2 [2]) | ratio A625/A525 (AuNPs/MCH-gelatin; group B, 1.25×10^−3 U of trypsin) | ratio A625/A525 (AuNPs/MCH-gelatin; group C, 1.25×10^−2 U of trypsin) | ratio A625/A525 (AuNPs/MCH-gelatin; group D, 1.25×10^−1 U of trypsin) | ratio A625/A525 (AuNPs/MCH-gelatin; group E, 1.25×10^0 U of trypsin) | ratio A625/A525 (AuNPs/MCH-gelatin; group F, 1.25×10^1 U of trypsin) | ratio A625/A525 (AuNPs/MCH-gelatin; group G, 1.25×10^2 U of trypsin) | ratio A625/A525 (AuNPs/MCH-gelatin; group H, 1.25×10^3 U of trypsin) |
| --- | --- | --- | --- | --- | --- | --- | --- | --- | --- | --- | --- |
| CCOCOC[C@H](C[C@H](C)C(=O)NO)NC(=O)c1ccc(Oc2ccccc2)cc1 [ONO-4817] | can suppress the activity of MMP-2 | can suppress the activity of MMP-2 | significantly increase | 720 pM |  |  |  |  |  |  |  |
| A1AT: trypsin suppressor; cannot suppress the activity of MMPs |  | not suppressed | can effectively suppress the activity of trypsin |  |  |  |  |  |  |  |  |
| B1 |  |  |  |  | 0.2131 | 0.2134 | 0.2554 | 0.4236 | 0.5674 | 0.6114 | 0.6484 |
